# From the supplement of paper PMC12783771
# ± gives the standard deviation of the averaged measurements.
# B1: library; numbered along this chain (parent)
# chain: MNIQIGELAKRTACPVVTIRFYEQEGLLPPPGRSRGNFRLYGEEHVERLQFIRHCRSLDMPLSDVRTLLSYRKRPDQDCGEVNMLLDEHIRQVESRIGALLELKHHLVELREACSGARPAQSCGILQGLSDCVCDTRGTTAHPSD
# Tests used:
# [1] = variants of: B1; test: sfGFP reporter fluorescence (15 h) (µM FITC); higher = higher leak; conditions: library round: Round 1; ligand: none
# Protocol: (§1)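 Cell-free biosensing: 1 µL Echo-assembled CFE reactions with linear PbrR variant templates (5 nM) and pPbrR-sfGFP reporter, with 1 µM Pb, 30 µM Zn or no ligand; endpoint sfGFP fluorescence after 15 h at 30 °C calibrated as µM FITC. Round 1 ML-predicted PbrR mutants; 3 biological replicates.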
# [2] = variants of: B1; test: sfGFP reporter fluorescence (15 h) (µM FITC); higher = stronger transcriptional activation; conditions: library round: Round 1
# Protocol: as §1
Variant,sfGFP reporter fluorescence [1],sfGFP reporter fluorescence ([2]; ligand: 1 µM Pb),sfGFP reporter fluorescence ([2]; ligand: 30 µM Zn)
N83T D131S,0.0602 ± 0.0017,0.0836 ± 0.0031,0.146 ± 0.016
M60L P61L,0.0689 ± 0.00037,0.081 ± 0.0019,0.156 ± 0.015
M60L D64K G128T D135A,0.874 ± 0.016,1.32 ± 0.071,2.33 ± 0.27
D64T N83T R111I,0.0783 ± 0.0017,0.156 ± 0.014,1.12 ± 0.13
D64K K104E,0.0882 ± 0.0047,0.31 ± 0.058,1.65 ± 0.039
V16S P61N,0.074 ± 0.00097,0.114 ± 0.021,0.612 ± 0.11
D64K V108E,0.0746 ± 0.0013,0.165 ± 0.015,1.42 ± 0.1
P61N D131C,0.108 ± 0.0091,0.428 ± 0.043,1.59 ± 0.16
P61N D131Y,0.0734 ± 0.00076,0.115 ± 0.0094,0.59 ± 0.078
N83R D135A,0.0635 ± 0.0017,0.0787 ± 0.005,0.0875 ± 0.0015
N83T D131M D135A,0.0656 ± 0.0024,0.0837 ± 0.0023,0.205 ± 0.011
D64K E112F,0.06988 ± 0.00056,0.145 ± 0.0047,0.802 ± 0.055
D64K C79L,0.0594 ± 0.00097,0.05925 ± 0.00021,0.0572 ± 0.00064
P61L K104V,0.0638 ± 0.00097,0.0617 ± 0.005,0.0765 ± 0.0044
N83S K104V,0.064 ± 0.0016,0.121 ± 0.0056,0.405 ± 0.015
M60L D131C,0.0866 ± 0.0039,0.248 ± 0.025,0.694 ± 0.081
D64T L107C,2.07 ± 0.33,2.22 ± 0.12,2.63 ± 0.3
P61N I90L K104G,0.0641 ± 0.0019,0.0616 ± 0.0054,0.119 ± 0.012
M60L D64K E81A R111A,0.488 ± 0.013,1.37 ± 0.17,2.16 ± 0.59
R33M Q127T,0.0635 ± 0.0027,0.0614 ± 0.0047,0.0645 ± 0.0022
D64K I90C K104V,0.0914 ± 0.0024,0.341 ± 0.073,0.959 ± 0.086
N83S R111C,0.06169 ± 0.00056,0.0672 ± 0.002,0.0665 ± 0.0011
N83S R111D,0.0636 ± 0.0039,0.0665 ± 0.0026,0.0759 ± 0.00097

Variant,sfGFP reporter fluorescence [1],sfGFP reporter fluorescence ([2]; ligand: 1 µM Pb),sfGFP reporter fluorescence ([2]; ligand: 30 µM Zn)
M60L P61N D64K L107C G128M,2.5 ± 0.028,2.54 ± 0.22,2.51 ± 0.45
D64K N83S I90N,0.0679 ± 0.0014,0.223 ± 0.065,0.737 ± 0.02
P61D D64K L107C,1.58 ± 0.082,1.54 ± 0.35,2.2 ± 0.1
N83T C134A,0.0602 ± 0.0013,0.0716 ± 0.0016,0.162 ± 0.014
N83T C134V,0.0588 ± 0.0022,0.0731 ± 0.0054,0.168 ± 0.016
N83T C134L,0.0568 ± 0.0011,0.0739 ± 0.003,0.159 ± 0.025
N83T C134M,0.05754 ± 0.00037,0.0707 ± 0.0046,0.19 ± 0.022
M60L D64K K104V D131C,0.504 ± 0.028,1.29 ± 0.22,1.91 ± 0.2
P61N D64K V108H,0.139 ± 0.0027,0.462 ± 0.044,1.48 ± 0.026
M60L D64K P143A,0.3527 ± 0.0018,0.945 ± 0.11,2.4 ± 0.12
P61S G128I D131C,0.12 ± 0.0019,0.286 ± 0.053,1.25 ± 0.2
D64T E88A C134E,0.204 ± 0.031,0.238 ± 0.062,1.65 ± 0.15
P61N D64K N83T,0.0684 ± 0.00076,0.232 ± 0.045,0.635 ± 0.034
P61N D135R,0.0732 ± 0.00085,0.164 ± 0.0087,0.708 ± 0.075
P61N D135A,0.0764 ± 0.0016,0.152 ± 0.014,0.791 ± 0.096
D64T G128I D135A,0.4487 ± 0.003,0.801 ± 0.052,2.35 ± 0.3
M60L P61D D64K,0.237 ± 0.022,0.609 ± 0.14,1.82 ± 0.074
P61N K104V L107E,0.0663 ± 0.0026,0.0646 ± 0.0037,0.06805 ± 0.00056
P61N D64K D135A,0.123 ± 0.0068,0.376 ± 0.011,1.33 ± 0.12
M60L D64K G128T D131C,0.754 ± 0.023,1.8 ± 0.19,2.25 ± 0.44
P61N D64K K104V L107C G128M,0.854 ± 0.022,1.37 ± 0.39,2.24 ± 0.098
P61N D64K K104V L107C G128I,0.427 ± 0.0081,0.961 ± 0.14,1.77 ± 0.27
D64S E109H,0.0794 ± 0.0043,0.193 ± 0.0059,1 ± 0.12

Variant,sfGFP reporter fluorescence [1],sfGFP reporter fluorescence ([2]; ligand: 1 µM Pb),sfGFP reporter fluorescence ([2]; ligand: 30 µM Zn)
D64T K104T,0.207 ± 0.0096,0.472 ± 0.087,1.83 ± 0.16
M60L P61N D64K K104T,0.137 ± 0.0056,0.446 ± 0.019,1.18 ± 0.11
M60F P61N D64K,0.624 ± 0.057,1.61 ± 0.059,1.82 ± 0.16
D64K N83T R111L,0.0651 ± 0.0024,0.125 ± 0.0074,0.532 ± 0.049
N83S V108N,0.0632 ± 0.0015,0.0665 ± 0.0043,0.146 ± 0.0045
P61N D64K D131C,0.119 ± 0.0056,0.297 ± 0.065,0.868 ± 0.068
C79F G128M,0.0586 ± 0.0017,0.0606 ± 0.0011,0.0597 ± 0.00073
P61N V108M R111C,0.0735 ± 0.00085,0.0925 ± 0.013,0.237 ± 0.0083
D64K D135Y,0.149 ± 0.014,0.386 ± 0.028,1.09 ± 0.15
D64A D135R,0.0876 ± 0.00097,0.18 ± 0.034,1.55 ± 0.021
V16C V46Y,0.0651 ± 0.0018,0.07452 ± 0.00021,0.0793 ± 0.0053
M60L P61N D64K D131C,0.194 ± 0.0087,0.7 ± 0.062,1.15 ± 0.26
D64T D131C,0.143 ± 0.0074,0.359 ± 0.033,1.51 ± 0.07
P61N D64T E112I,0.0771 ± 0.0039,0.153 ± 0.018,0.942 ± 0.03
N83I I97H,0.0618 ± 0.0012,0.0654 ± 0.0032,0.0625 ± 0.003
N83I H89C,0.0654 ± 0.0027,0.0645 ± 0.0035,0.0687 ± 0.0029
D64K R111A,0.112 ± 0.0044,0.382 ± 0.052,1.83 ± 0.27
D64K R111L,0.06487 ± 0.00064,0.154 ± 0.013,0.898 ± 0.071
D64K R111D,0.0666 ± 0.00092,0.164 ± 0.011,0.682 ± 0.097
L62I R111L,0.0639 ± 0.002,0.0671 ± 0.0036,0.143 ± 0.0089
M60L D64K L107C E109L G128I D131T,2.84 ± 0.3,2.23 ± 0.17,2.37 ± 0.23
P61N E112V,0.0641 ± 0.0026,0.0906 ± 0.0036,0.387 ± 0.058
N83T D131S P143A,0.059 ± 0.0033,0.0792 ± 0.0071,0.156 ± 0.017

Variant,sfGFP reporter fluorescence [1],sfGFP reporter fluorescence ([2]; ligand: 1 µM Pb),sfGFP reporter fluorescence ([2]; ligand: 30 µM Zn)
V82I E112I D131C,0.0625 ± 0.0026,0.0635 ± 0.0028,0.0669 ± 0.0057
P61D D64K,0.168 ± 0.0064,0.454 ± 0.038,1.44 ± 0.17
N83M D135A,0.0564 ± 0.0017,0.102 ± 0.0031,0.07 ± 0.0044
E43M G128I,0.077 ± 0.0028,0.206 ± 0.025,1.23 ± 0.086
D64A E94R,0.0816 ± 0.0051,0.179 ± 0.013,1.44 ± 0.18
N83S D131A D135A,0.0661 ± 0.0022,0.082 ± 0.01,0.275 ± 0.028
D64K I97S,0.0966 ± 0.0019,0.216 ± 0.016,1.09 ± 0.074
D64K I97A,0.2087 ± 0.002,0.581 ± 0.17,2.21 ± 0.066
P61L D64K,0.06157 ± 0.00037,0.0655 ± 0.0074,0.06389 ± 0.00056
V16N L58A,0.0597 ± 0.0018,0.0608 ± 0.00073,0.0591 ± 0.0024
P30A V46R,0.0618 ± 0.0011,0.0716 ± 0.0014,0.298 ± 0.024
R33A G36L,0.0634 ± 0.0035,0.0567 ± 0.0051,0.0604 ± 0.00092
N83I D131S,0.063 ± 0.0013,0.0862 ± 0.0031,0.0633 ± 0.0013
P61E D64K D131C,0.108 ± 0.0035,0.243 ± 0.036,0.676 ± 0.084
V16T K104V,0.0693 ± 0.0019,0.105 ± 0.0073,0.497 ± 0.034
M60L D64T L107C,0.71 ± 0.032,0.754 ± 0.061,2.46 ± 0.078
D64A K104C,0.115 ± 0.002,0.342 ± 0.031,1.25 ± 0.076
D64A R111L,0.061 ± 0.0013,0.105 ± 0.01,0.743 ± 0.022
D64K N83T,0.0636 ± 0.0021,0.186 ± 0.009,0.695 ± 0.022
D64K N83F,0.0616 ± 0.0024,0.198 ± 0.035,0.143 ± 0.01
